According to paper PMC6024076, “mRNA Deadenylation Is Coupled to Translation Rates by the Differential Activities of Ccr4-Not Nucleases”:

T1: Pab1 (Schizosaccharomyces pombe, UniProt P31209 80-653)
T1 sequence: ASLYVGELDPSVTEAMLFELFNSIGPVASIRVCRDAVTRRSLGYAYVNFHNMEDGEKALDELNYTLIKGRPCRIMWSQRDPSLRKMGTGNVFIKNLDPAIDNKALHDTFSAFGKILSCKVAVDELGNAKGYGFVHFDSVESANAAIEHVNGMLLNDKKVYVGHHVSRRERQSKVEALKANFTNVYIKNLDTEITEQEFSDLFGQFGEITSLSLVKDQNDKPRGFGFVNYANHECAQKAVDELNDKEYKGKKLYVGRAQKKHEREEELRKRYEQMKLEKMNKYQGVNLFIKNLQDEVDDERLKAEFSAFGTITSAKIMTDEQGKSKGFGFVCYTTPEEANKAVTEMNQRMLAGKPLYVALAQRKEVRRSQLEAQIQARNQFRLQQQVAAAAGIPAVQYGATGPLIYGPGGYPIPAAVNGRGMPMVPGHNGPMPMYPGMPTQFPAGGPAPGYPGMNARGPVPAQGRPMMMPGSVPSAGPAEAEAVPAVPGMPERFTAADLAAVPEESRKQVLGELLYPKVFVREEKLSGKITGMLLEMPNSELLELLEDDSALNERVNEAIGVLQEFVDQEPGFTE


Legend:
[1] = biological target: GST-Pab1 (S. pombe poly(A)-binding protein Pab1) (S. pombe) (UniProt P31209)
[2] = biological target: T1, Pab1; assay: fluorescence polarization; FP: 20 mM HEPES pH 7.4, 150 mM NaCl, 22 C, 2 h, 0.2 nM RNA; switchSENSE: same buffer + 0.001% Tween-20, 25 nM Pab1, 20 C; EMSA: 20 mM PIPES pH 6.8, 10 mM KCl, 90 mM NaCl, 2 mM Mg(OAc)2, 0.1 mM TCEP, 22 C, 200 nM RNA; settings: protein: recombinant; tags: N-terminal GST cleaved with 3C protease; label: 5' 6-FAM
[3] = biological target: T1, Pab1; assay: fluorescence polarization; one-site quadratic fit; printed label order scrambled, assigned by koff/kon; FP: 20 mM HEPES pH 7.4, 150 mM NaCl, 22 C, 2 h, 0.2 nM RNA; switchSENSE: same buffer + 0.001% Tween-20, 25 nM Pab1, 20 C; EMSA: 20 mM PIPES pH 6.8, 10 mM KCl, 90 mM NaCl, 2 mM Mg(OAc)2, 0.1 mM TCEP, 22 C, 200 nM RNA; settings: protein: recombinant; tags: N-terminal GST cleaved with 3C protease; label: 5' 6-FAM

Molecule | Kd [2] [nM] | further results
S. pombe Ccr4-Not complex (WT), seven core subunits (from UniProt O74874 1-690; O74856 1-335; P87112 1-2100; P87240 1-306; O13870 1-640; Q92368 1-283) | – | average rate of deadenylation of 20-mer-A60 RNA by purified Ccr4-Not with Pab1 (two molecules per RNA; GST cleaved) against without Pab1 [1]: 3 fold
AAAAAAAAAAAAAAAAAAAAAA (ssRNA) [A22] | ~0.5 | –
AAAAAAAAAAAAAAAAAAAAAAAAAAAAAA (ssRNA) [A30] | – | Kd [3]: 0.25 ± 0.03 nM
AAAAAAAAAAAA (ssRNA) [A12] | ~27 | –
